Measurements as given in patent US20090305951A1 (published 2009).

Biological target: FGF-receptor on dissociated neurons from embryonic rat hippocampus (rat)
Assay: cell-based or functional assay

Binder | neurite outgrowth from hippocampal neurons, 50 µM peptide, relative to the entire FG loop peptide
VAENQQGKS [truncated version of the FG loop peptide, nonamer Val 76-Ser 84] | ~50%
AENQQGK [truncated version of the FG loop peptide, heptamer Ala 77-Lys 83] | ~50%
